Measurements published in patent US12458703B2, “Responsive elastic polymers and methods of making and using same” (Purdue Research Foundation, priority 2016, dated 2025).

Assay: Intravital fluorescence imaging of BSA-AF release in the knee joint after intra-articular injection
Assay type: in vivo
Details: total radiant efficiency from knee joint, released from HA-g-PNIPAm hydrogels

## Alexa Fluor 680 conjugated BSA: Alexa Fluor 680 conjugated BSA released from HA-g-PNIPAm hydrogels
  time detected in the knee joints: more than 24 hours
n=4
  time of maximum concentration post intra-articular injection: 6 to 12 h
